This note sets out measurements from PMC12507091, “The CsWRKY50-CsREM1-CsTSⅠ module inhibits theanine biosynthesis in tea plants under drought stress”.

Data set [1] addresses T1, CsREM1-GST (Camellia sinensis).
T1 chain: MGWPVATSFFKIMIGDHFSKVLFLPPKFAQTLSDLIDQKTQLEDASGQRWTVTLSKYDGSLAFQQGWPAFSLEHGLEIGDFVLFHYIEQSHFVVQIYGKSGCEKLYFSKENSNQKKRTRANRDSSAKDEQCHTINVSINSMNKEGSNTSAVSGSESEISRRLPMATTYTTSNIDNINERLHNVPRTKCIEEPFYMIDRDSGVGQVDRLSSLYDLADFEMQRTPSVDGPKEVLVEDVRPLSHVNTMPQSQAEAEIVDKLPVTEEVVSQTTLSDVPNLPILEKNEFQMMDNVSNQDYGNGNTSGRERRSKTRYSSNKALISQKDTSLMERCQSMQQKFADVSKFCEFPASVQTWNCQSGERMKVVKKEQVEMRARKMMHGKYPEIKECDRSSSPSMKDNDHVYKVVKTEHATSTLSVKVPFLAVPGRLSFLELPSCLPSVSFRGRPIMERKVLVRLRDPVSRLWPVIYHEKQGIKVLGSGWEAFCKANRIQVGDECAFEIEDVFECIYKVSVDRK
In words: EMSA; not stated (EMSA protocol per Zhu et al. 2024). As to conditions: protein: recombinant; tags: GST (pGEX-4T, N-terminal by vector); blunt. (In general: A gel shift assay detects complexes by their altered migration in electrophoresis.)

The target in data set [2] is CsWRKY50-GST (Camellia sinensis). The description is as above. As to conditions: protein: recombinant; tags: GST (pGEX-4T, N-terminal by vector); blunt.
Sequence of CsWRKY50-GST (Camellia sinensis) (chain, as listed by the source): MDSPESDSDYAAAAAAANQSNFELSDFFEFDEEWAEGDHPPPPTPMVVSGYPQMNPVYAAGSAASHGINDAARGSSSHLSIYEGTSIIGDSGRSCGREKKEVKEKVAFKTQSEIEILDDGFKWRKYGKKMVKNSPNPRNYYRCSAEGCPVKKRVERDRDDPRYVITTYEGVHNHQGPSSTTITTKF

B1: CsTSI promoter Probe-1 (dsDNA)
DNA 1: TATGTAATTTTATGTAGAGTTATACAT
DNA 2: ATGTATAACTCTACATAAAATTACATA
As to B1, in data set [1], the binding result is recorded as “binds”.

B2: CsTSI promoter Probe-2 (dsDNA)
DNA 1: TTACAACATGCTACACAGACTCGTAAA
DNA 2: TTTACGAGTCTGTGTAGCATGTTGTAA
On to B2, for which the binding result in data set [1] was “binds”.

B3: CsREM1 promoter Probe (dsDNA)
DNA 1: TTTTGTCTATGTTTTGACTTACTAATAATT
DNA 2: AATTATTAGTAAGTCAAAACATAGACAAAA
Consider B3, for which the binding result in data set [2] is on record as “binds”.
